Test in all cases: ITC
Test [1] has as its target T1, tH2 (aa91-189) mutant K^116K^117A (vaccinia virus, UniProt P08583 91-189, K^116K^117A | K^116K^117A).
T1 sequence: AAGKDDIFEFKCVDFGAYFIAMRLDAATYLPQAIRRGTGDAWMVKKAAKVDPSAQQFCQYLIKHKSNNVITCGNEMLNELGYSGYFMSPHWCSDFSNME

For test [2], the target named is T2, tH2 (aa91-189) mutant R^125R^126A (vaccinia virus, UniProt P08583 91-189, R^125R^126A | R^125R^126A).
T2 sequence: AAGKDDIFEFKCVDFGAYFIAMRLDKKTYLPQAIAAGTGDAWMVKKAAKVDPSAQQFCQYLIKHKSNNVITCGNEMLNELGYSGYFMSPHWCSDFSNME

Test [3] has as its target T3, tH2 (aa91-189) mutant D^130A (vaccinia virus, UniProt P08583 91-189, D^130A).
T3 sequence: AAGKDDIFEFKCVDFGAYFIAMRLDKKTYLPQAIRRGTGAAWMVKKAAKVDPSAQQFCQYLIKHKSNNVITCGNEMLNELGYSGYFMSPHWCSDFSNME

Test [4] deals with T4, tH2 (aa91-189) mutant G^127G^129A (vaccinia virus, UniProt P08583 91-189, G^127G^129A | G^127G^129A).
T4 sequence: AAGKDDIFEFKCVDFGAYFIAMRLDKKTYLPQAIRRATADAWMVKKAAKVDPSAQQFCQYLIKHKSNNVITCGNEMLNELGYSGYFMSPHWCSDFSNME

Test [5] deals with T5, tH2 (aa91-189) mutant D^141A (vaccinia virus, UniProt P08583 91-189, D^141A).
T5 sequence: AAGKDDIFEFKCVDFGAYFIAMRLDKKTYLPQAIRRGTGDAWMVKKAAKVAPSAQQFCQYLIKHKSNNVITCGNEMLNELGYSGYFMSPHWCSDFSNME

The target of test [6] is T6, tH2 (aa91-189) mutant W^132A (vaccinia virus, UniProt P08583 91-189, W^132A).
T6 sequence: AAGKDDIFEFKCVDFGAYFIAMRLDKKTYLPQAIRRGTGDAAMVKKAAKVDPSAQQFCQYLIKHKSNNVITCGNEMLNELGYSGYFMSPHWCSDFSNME

B1: recombinant A28 (aa56-146) (domain or fragment)
chain: DRRVQDVNDTISDVKQKWRCVVYPGNGFVSASIFGFQAEVGPNNTRSIRKFNTMQQCIDFTFSDVININIYNPCVVPNINNAECQFLKSVL
In test [1], B1 yielded a Kd of roughly 5.3 µM. The binding result in test [2], in test [3], in test [4], in test [5] and in test [6] was “binds” in each case.
